koff data for eight substances are collected here from PMC8967028.

The target in the assay is SARS-CoV-2 Wuhan spike (S) receptor binding domain (SARS-CoV-2). The experiment in a line: SPR; Biacore T200; […], single cycle kinetics, […]; 25°C; PBS, 0.05% Tween 20, 3.4 mM EDTA; 1:1 binding model; triplicate; […].

Usually koff stands for a measure of how fast the partners let go of each other. A low value points to a long-lived complex. Consider VHH-72-Fc L97W (Fc fusion), for which the koff amounted to 0.0018 s⁻¹. The result for VHH-72-Fc L97W,T99V (Fc fusion) reads 0.00035 s⁻¹; that for VHH-72-Fc S56M (Fc fusion), 0.0031 s⁻¹. The substance VHH-72-Fc S56M,L97W (Fc fusion) gave an off-rate constant (koff) of 0.00044 s⁻¹. Take VHH-72-Fc S56M,L97W,T99V (Fc fusion): the koff was 0.00028 s⁻¹. As for VHH-72-Fc S56M,T99V (Fc fusion), the off-rate constant (koff) was determined as 0.00041 s⁻¹. VHH-72-Fc T99V (Fc fusion) yielded an off-rate constant (koff) of 0.00072 s⁻¹. In turn, parental VHH-72-Fc (Fc fusion) showed a dissociation rate constant (koff) of 0.0091 s⁻¹.
